Measurements reported in the Human Domainome abundance scans (Beltran et al. 2025).
± gives the uncertainty stated by the source.

B1: Cullin-9, residues 2234 to 2275; numbered along this chain, Q8IWT3 (parent)
chain: KRCPSCQAPIEKNEGCLHMTCAKCNHGFCWRCLKSWKPNHKD

Variants of: B1
Assay: abundance fitness (aPCA) (normalised: wild type 0, dead -1); higher = more abundant; growth selection in yeast, the domain comes from the species named
Settings: Homo sapiens

Row | Variant | abundance fitness
1 | KRCPSFQAPIEKNEGCLHMTCAKCNHGFCWRCLKSWKPNHKD [C6F] | -0.846 ± 0.28
2 | KRCPSKQAPIEKNEGCLHMTCAKCNHGFCWRCLKSWKPNHKD [C6K] | -0.515 ± 0.19
3 | KRCPSNQAPIEKNEGCLHMTCAKCNHGFCWRCLKSWKPNHKD [C6N] | 0.056 ± 0.31
4 | KRCPSYQAPIEKNEGCLHMTCAKCNHGFCWRCLKSWKPNHKD [C6Y] | -0.518 ± 0.15
5 | KRCPSEQAPIEKNEGCLHMTCAKCNHGFCWRCLKSWKPNHKD [C6E] | -0.304 ± 0.11
6 | KRCPSTQAPIEKNEGCLHMTCAKCNHGFCWRCLKSWKPNHKD [C6T] | -0.347 ± 0.098
7 | KRCPSVQAPIEKNEGCLHMTCAKCNHGFCWRCLKSWKPNHKD [C6V] | -0.383 ± 0.087
8 | KRCESCQAPIEKNEGCLHMTCAKCNHGFCWRCLKSWKPNHKD [P4E] | -1.27 ± 0.14
9 | KRCHSCQAPIEKNEGCLHMTCAKCNHGFCWRCLKSWKPNHKD [P4H] | -0.022 ± 0.32
10 | KRCSSCQAPIEKNEGCLHMTCAKCNHGFCWRCLKSWKPNHKD [P4S] | -0.129 ± 0.099
11 | KRCKSCQAPIEKNEGCLHMTCAKCNHGFCWRCLKSWKPNHKD [P4K] | -1.44 ± 0.33
12 | KRCMSCQAPIEKNEGCLHMTCAKCNHGFCWRCLKSWKPNHKD [P4M] | -0.079 ± 0.11
13 | KRCRSCQAPIEKNEGCLHMTCAKCNHGFCWRCLKSWKPNHKD [P4R] | -0.41 ± 0.089
14 | KRCVSCQAPIEKNEGCLHMTCAKCNHGFCWRCLKSWKPNHKD [P4V] | 0.117 ± 0.078
15 | KRCFSCQAPIEKNEGCLHMTCAKCNHGFCWRCLKSWKPNHKD [P4F] | 0.434 ± 0.21
16 | KRCISCQAPIEKNEGCLHMTCAKCNHGFCWRCLKSWKPNHKD [P4I] | 0.013 ± 0.14
17 | KRCTSCQAPIEKNEGCLHMTCAKCNHGFCWRCLKSWKPNHKD [P4T] | 0.002 ± 0.1
18 | KRCDSCQAPIEKNEGCLHMTCAKCNHGFCWRCLKSWKPNHKD [P4D] | -1.47 ± 0.39
19 | KRCYSCQAPIEKNEGCLHMTCAKCNHGFCWRCLKSWKPNHKD [P4Y] | 0.231 ± 0.17
20 | KRCQSCQAPIEKNEGCLHMTCAKCNHGFCWRCLKSWKPNHKD [P4Q] | -0.351 ± 0.11

Row | Variant | abundance fitness
21 | KRCASCQAPIEKNEGCLHMTCAKCNHGFCWRCLKSWKPNHKD [P4A] | 0.098 ± 0.078
22 | KRCWSCQAPIEKNEGCLHMTCAKCNHGFCWRCLKSWKPNHKD [P4W] | -0.147 ± 0.092
23 | KRCGSCQAPIEKNEGCLHMTCAKCNHGFCWRCLKSWKPNHKD [P4G] | 0.056 ± 0.07
24 | KRCCSCQAPIEKNEGCLHMTCAKCNHGFCWRCLKSWKPNHKD [P4C] | 0.182 ± 0.12
25 | KRCLSCQAPIEKNEGCLHMTCAKCNHGFCWRCLKSWKPNHKD [P4L] | 0.065 ± 0.094
26 | KRCNSCQAPIEKNEGCLHMTCAKCNHGFCWRCLKSWKPNHKD [P4N] | -1.15 ± 0.28
27 | KRCPSCQTPIEKNEGCLHMTCAKCNHGFCWRCLKSWKPNHKD [A8T] | -0.027 ± 0.11
28 | KRCPSCQGPIEKNEGCLHMTCAKCNHGFCWRCLKSWKPNHKD [A8G] | 0.023 ± 0.074
29 | KRCPSCQIPIEKNEGCLHMTCAKCNHGFCWRCLKSWKPNHKD [A8I] | -0.341 ± 0.27
30 | KRCPSCQKPIEKNEGCLHMTCAKCNHGFCWRCLKSWKPNHKD [A8K] | -0.006 ± 0.13
31 | KRCPSCQMPIEKNEGCLHMTCAKCNHGFCWRCLKSWKPNHKD [A8M] | -0.155 ± 0.1
32 | KRCPSCQPPIEKNEGCLHMTCAKCNHGFCWRCLKSWKPNHKD [A8P] | -0.555 ± 0.28
33 | KRCPSCQFPIEKNEGCLHMTCAKCNHGFCWRCLKSWKPNHKD [A8F] | -0.01 ± 0.13
34 | KRCPSCQRPIEKNEGCLHMTCAKCNHGFCWRCLKSWKPNHKD [A8R] | -0.153 ± 0.072
35 | KRCPSCQVPIEKNEGCLHMTCAKCNHGFCWRCLKSWKPNHKD [A8V] | -0.231 ± 0.083
36 | KRCPSCQDPIEKNEGCLHMTCAKCNHGFCWRCLKSWKPNHKD [A8D] | -0.284 ± 0.12
37 | KRCPSCQSPIEKNEGCLHMTCAKCNHGFCWRCLKSWKPNHKD [A8S] | -0.058 ± 0.085
38 | KRCPSCQYPIEKNEGCLHMTCAKCNHGFCWRCLKSWKPNHKD [A8Y] | -0.005 ± 0.14
39 | KRCPSCQLPIEKNEGCLHMTCAKCNHGFCWRCLKSWKPNHKD [A8L] | -0.256 ± 0.083
40 | KRCPSCQNPIEKNEGCLHMTCAKCNHGFCWRCLKSWKPNHKD [A8N] | 0.305 ± 0.22

Row | Variant | abundance fitness
41 | KRCPSCQCPIEKNEGCLHMTCAKCNHGFCWRCLKSWKPNHKD [A8C] | -0.213 ± 0.12
42 | KRCPSCQQPIEKNEGCLHMTCAKCNHGFCWRCLKSWKPNHKD [A8Q] | 0.014 ± 0.11
43 | KRFPSCQAPIEKNEGCLHMTCAKCNHGFCWRCLKSWKPNHKD [C3F] | -0.416 ± 0.2
44 | KRAPSCQAPIEKNEGCLHMTCAKCNHGFCWRCLKSWKPNHKD [C3A] | -1.03 ± 0.12
45 | KRGPSCQAPIEKNEGCLHMTCAKCNHGFCWRCLKSWKPNHKD [C3G] | -0.485 ± 0.08
46 | KRQPSCQAPIEKNEGCLHMTCAKCNHGFCWRCLKSWKPNHKD [C3Q] | -1.07 ± 0.14
47 | KRMPSCQAPIEKNEGCLHMTCAKCNHGFCWRCLKSWKPNHKD [C3M] | -0.144 ± 0.11
48 | KRTPSCQAPIEKNEGCLHMTCAKCNHGFCWRCLKSWKPNHKD [C3T] | -0.435 ± 0.15
49 | KRPPSCQAPIEKNEGCLHMTCAKCNHGFCWRCLKSWKPNHKD [C3P] | -0.945 ± 0.13
50 | KRVPSCQAPIEKNEGCLHMTCAKCNHGFCWRCLKSWKPNHKD [C3V] | -0.348 ± 0.092
51 | KRYPSCQAPIEKNEGCLHMTCAKCNHGFCWRCLKSWKPNHKD [C3Y] | -0.342 ± 0.16
52 | KRNPSCQAPIEKNEGCLHMTCAKCNHGFCWRCLKSWKPNHKD [C3N] | 0.169 ± 0.24
53 | KRWPSCQAPIEKNEGCLHMTCAKCNHGFCWRCLKSWKPNHKD [C3W] | -1.4 ± 0.18
54 | KRSPSCQAPIEKNEGCLHMTCAKCNHGFCWRCLKSWKPNHKD [C3S] | -0.303 ± 0.092
55 | KRKPSCQAPIEKNEGCLHMTCAKCNHGFCWRCLKSWKPNHKD [C3K] | -0.658 ± 0.13
56 | KREPSCQAPIEKNEGCLHMTCAKCNHGFCWRCLKSWKPNHKD [C3E] | -0.474 ± 0.17
57 | KRHPSCQAPIEKNEGCLHMTCAKCNHGFCWRCLKSWKPNHKD [C3H] | -0.249 ± 0.15
58 | KRIPSCQAPIEKNEGCLHMTCAKCNHGFCWRCLKSWKPNHKD [C3I] | 0.698 ± 0.13
59 | KRDPSCQAPIEKNEGCLHMTCAKCNHGFCWRCLKSWKPNHKD [C3D] | -0.018 ± 0.13
60 | KRRPSCQAPIEKNEGCLHMTCAKCNHGFCWRCLKSWKPNHKD [C3R] | -0.751 ± 0.089
